T1: keto acyl synthase (KS) domain of FAS labeled with Flag at the N-terminal (UniProt P19096 1-406, limits assumed)
T1 construct: domain: keto acyl synthase (KS); Subcloned into pFLAG-CMV2 from the full-length FAS cDNA
T1 sequence (looked up): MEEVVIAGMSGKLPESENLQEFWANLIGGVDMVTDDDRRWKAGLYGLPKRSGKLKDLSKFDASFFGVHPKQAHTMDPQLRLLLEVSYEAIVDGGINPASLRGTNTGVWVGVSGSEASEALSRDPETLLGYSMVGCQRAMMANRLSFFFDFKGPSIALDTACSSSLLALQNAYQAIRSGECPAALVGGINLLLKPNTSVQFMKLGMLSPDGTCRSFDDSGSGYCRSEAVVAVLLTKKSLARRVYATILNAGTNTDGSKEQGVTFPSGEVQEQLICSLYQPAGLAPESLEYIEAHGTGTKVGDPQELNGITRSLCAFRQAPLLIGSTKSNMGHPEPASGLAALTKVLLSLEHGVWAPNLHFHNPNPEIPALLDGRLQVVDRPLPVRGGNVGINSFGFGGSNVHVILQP

T2: malonyl/acetyl transferase (MAT) domain of FAS labeled with Flag at the N-terminal (UniProt P19096 429-817, limits assumed)
T2 construct: domain: malonyl/acetyl transferase (MAT); Subcloned into pFLAG-CMV2 from the full-length FAS cDNA
T2 sequence (looked up): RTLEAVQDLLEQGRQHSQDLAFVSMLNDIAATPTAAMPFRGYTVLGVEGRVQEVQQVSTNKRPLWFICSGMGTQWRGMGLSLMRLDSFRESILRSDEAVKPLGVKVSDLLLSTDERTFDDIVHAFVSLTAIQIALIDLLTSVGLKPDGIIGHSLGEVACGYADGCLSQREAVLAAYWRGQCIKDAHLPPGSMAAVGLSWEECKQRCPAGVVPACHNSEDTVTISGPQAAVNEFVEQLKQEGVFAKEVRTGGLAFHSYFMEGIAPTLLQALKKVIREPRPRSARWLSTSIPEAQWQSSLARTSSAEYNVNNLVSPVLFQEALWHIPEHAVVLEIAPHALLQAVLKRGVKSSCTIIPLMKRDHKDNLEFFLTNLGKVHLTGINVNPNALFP

B1: recombinant AIM protein (rAIM) of mouse labeled with HA-tag (ligand)
chain: ESPTKVQLVGGAHRCEGRVEVEHNGQWGTVCDDGWDRRDVAVVCRELNCGAVIQTPRGASYQPPASEQRVLIQGVDCNGTEDTLAQCELNYYVFDCSHEEDAGAQCENPDSDLLFIPEDVRLVDGPGHCQGRVEVLHQSQWSTVCKAGWNLQVSKVVCRQLGCGRALLTYGSCNKNTQGKGPIWMGKMSCSGQEANLRSCLLSRLENNCTHGEDTWMECEDPFELKLVGGDTPCSGRLEVLHKGSWGSVCDDNWGEKEDQVVCKQLGCGKSLHPSPKTRKIYGPGAGRIWLDDVNCSGKEQSLEFCRHRLWGYHDCTHKEDVEVICTDFDV
notes: also called rAIM-HA; AIM-HA; not shown: HA-tag

Assays:
Experiment in all cases: co-immunoprecipitation of Flag-tagged FAS domains with AIM-HA in HEK293T cells
[1] = target: T1, keto acyl synthase (KS) domain of FAS …
[2] = target: T2, malonyl/acetyl transferase (MAT) domain …
[3] = target: B1

Binder	binding result [1]	binding result [2]	binding result [3]
B1	no binding	no binding	
keto reductase (KR) domain of FAS labeled with Flag at the N-terminal (enzyme, UniProt P19096 1857-2111, looked up, not shown: small tags and cut ends, domain: keto reductase (KR); Subcloned into pFLAG-CMV2 from the full-length FAS cDNA) VLPGAQPTLISAISKTFCPAHKSYIITGGLGGFGLELARWLVLRGAQRLVLTSRSGIRTGYQAKHIREWRRQGIQVLVSTSNVSSLEGARALIAEATKLGPVGGVFNLAMVLRDAMLENQTPELFQDVNKPKYNGTLNLDRATREACPELDYFVAFSSVSCGRGNAGQTNYGFANSTMERICEQRRHDGLPGLAVQWGAIGDVGIVLEAMGTNDTVIGGTLPQRISSCMEVLDLFLNQPHAVLSSFVLAEKKAVA			no binding
acylcarrier protein (ACP) domain of FAS labeled with Flag at the N-terminal (enzyme, UniProt P19096 2112-2192, looked up, not shown: small tags and cut ends, domain: acylcarrier protein (ACP); Subcloned into pFLAG-CMV2 from the full-length FAS cDNA) HGDGDTQRDLVKAVAHILGIRDLAGINLDSTLADLGLDSLMGVEVRQILEREHDLVLPMREVRQLTLRKLQEMSSKTDSAT			no binding

From patent publication US20130115220A1 (DAINIPPON SUMITOMO PHARMA, published 2013)
